Columns and labels:
Flag-p38α wild type [1] = molecular target: T1, Flag-p38α wild type (UniProt Q16539 1-360); assay: cell-based or functional assay
[2] = molecular target: Flag-p38α R49/149K mutant (UniProt Q16539 1-360, R49/149K | R49/149K); assay: cell-based or functional assay
Flag-p38α wild type [3] = molecular target: T1, Flag-p38α wild type; assay: co-IP; Flag-p38α immunoprecipitated with anti-Flag antibodies and protein G agarose at 4 °C from lysates (1 mg) of p38α-knockdown K562 cells after AraC (1 μM, 5 h); lysis buffer 150 mM NaCl, 20 mM Tris pH 7.4, 0.2% Triton X-100; partners detected by Western blot and quantified; in Figure 6D with or without HA-PRMT1; conditions: partners not purified

T1 sequence (Q16539 whole entry): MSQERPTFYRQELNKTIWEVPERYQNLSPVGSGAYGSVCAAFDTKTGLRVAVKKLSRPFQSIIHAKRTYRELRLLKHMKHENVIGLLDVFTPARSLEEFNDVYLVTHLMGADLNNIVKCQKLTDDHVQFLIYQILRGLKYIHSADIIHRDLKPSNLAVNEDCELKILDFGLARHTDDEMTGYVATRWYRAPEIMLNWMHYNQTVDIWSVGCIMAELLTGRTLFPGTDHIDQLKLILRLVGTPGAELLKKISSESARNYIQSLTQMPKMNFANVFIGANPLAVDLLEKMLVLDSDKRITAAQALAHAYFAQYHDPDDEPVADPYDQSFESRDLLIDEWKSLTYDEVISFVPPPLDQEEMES
Sequence of Flag-p38α R49/149K mutant (Q16539 other isoform, or with tags, fused parts or gaps R49/149K | R49/149K | R49/149K | R49/149K | mutant): as the sequence (Q16539 whole entry) above, with R49K, R149K counted along it

B1: MAPK kinase 3 (MKK3) (enzyme, human (endogenous in K562), UniProt P46734 1-347, looked up)
chain: MESPASSQPASMPQSKGKSKRKKDLRISCMSKPPAPNPTPPRNLDSRTFITIGDRNFEVEADDLVTISELGRGAYGVVEKVRHAQSGTIMAVKRIRATVNSQEQKRLLMDLDINMRTVDCFYTVTFYGALFREGDVWICMELMDTSLDKFYRKVLDKNMTIPEDILGEIAVSIVRALEHLHSKLSVIHRDVKPSNVLINKEGHVKMCDFGISGYLVDSVAKTMDAGCKPYMAPERINPELNQKGYNVKSDVWSLGITMIEMAILRFPYESWGTPFQQLKQVVEEPSPQLPADRFSPEFVDFTAQCLRKNPAERMSYLELMEHPFFTLHKTKKTDIAAFVKEILGEDS
notes: MKK3 (MAPK kinase 3), endogenous in human K562 cells, detected with anti-MKK3 (Cell Signaling #5674); source: endogenous, K562 lysate
For B1, the “sorbitol (150 mM)-induced activation phosphorylation of Flag-p38α at 0.5 h (Western blot with anti-phospho-p38)” value (Flag-p38α wild type [1]) was ~4 fold, the “sorbitol (150 mM)-induced activation phosphorylation of Flag-p38α at 0.5 h (Western blot with anti-phospho-p38)” value [2] was ~2 fold and the “fold change of the interaction with HA-PRMT1 against without” value (Flag-p38α wild type [3]) was 1.7 fold.
